Experimental data published in the supplement of paper PMC12764529.
± gives the half width of the 95% confidence interval.

Key:
[1] = folding stability dG unfold (combined trypsin and chymotrypsin); higher = more stable
Procedure, shortened: (§1)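 Unfolding free energy was derived, per protease or combined, by relating Bayesian-fitted K50 values from sequencing counts to a sequence-predicted unfolded-state K50 and a shared folded-state K50. The underlying digests exposed cysteine-free mini-proteins under 80 residues, in a PA-tagged cDNA display construct, to trypsin and chymotrypsin at 11 threefold-diluted concentrations and to a no-protease condition. A filter kept only designs with AlphaFold2 dimer inter-PAE above 15.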

[2] = folding stability dG unfold from chymotrypsin proteolysis; higher = more stable
Procedure, shortened: as §1

[3] = folding stability dG unfold from trypsin proteolysis; higher = more stable
Procedure, shortened: as §1

SAGGSVTITSITSIDTSSLSPDSVVTADVPDGKPVLIKGKVPPDGSVILTFYTPDGKPVATFTIPSSAGGSA [r2_323_JUSTAS]
folding stability dG unfold [1]: 0.669 ± 0.06 kcal/mol | folding stability dG unfold [2]: 0.779 ± 0.056 kcal/mol | folding stability dG unfold [3]: 0.508 ± 0.017 kcal/mol

SAGGSVTLPDATVVKVPPSQDWQEHADRLAAEIREAGADYEVSVESTPDGSVLITITVPGRTWTMVTSAGGS [r16_771_JUSTAS]
folding stability dG unfold [1]: 0.936 ± 0.03 kcal/mol | folding stability dG unfold [2]: 0.49 ± 0.077 kcal/mol | folding stability dG unfold [3]: 1.15 ± 0.032 kcal/mol

SAGGSVTTETDEYFYPDNLFTVAKTTLYVGSGPVEATAVSYPTFTLVNVHYPDGSVDTFLFTLTDDSSAGGS [r16_108_TrMRF]
folding stability dG unfold [1]: 3.08 ± 0.13 kcal/mol | folding stability dG unfold [2]: 3.56 ± 0.06 kcal/mol | folding stability dG unfold [3]: 2.38 ± 0.11 kcal/mol

SAGGSVVTTTFTYPDGTVVTTTTTPRPETLLTTTTTTTFYPDKPVKVAPGKEVVTTVTTTTTTVTPAASAGG [r13_780_JUSTAS]
folding stability dG unfold [1]: 0.54 ± 0.069 kcal/mol | folding stability dG unfold [2]: 0.574 ± 0.12 kcal/mol | folding stability dG unfold [3]: 0.378 ± 0.03 kcal/mol

SAGGSWVIIIQITIRNPGEERKITIPMEEIQGMPLEQIADNLRKLPGIGDVTIEIQEFPPPKPNDPSAGGSA [r2_282_TrROS]
folding stability dG unfold [1]: 2.31 ± 0.2 kcal/mol | folding stability dG unfold [2]: 2.34 ± 0.099 kcal/mol | folding stability dG unfold [3]: 2.31 ± 0.11 kcal/mol

SAGGSYLDEVREKILKEYPLKPGEPKEIEITVPLPSGRTVKIKIPVTVDPKTGKVEAKFEVLEETKESAGGS [r16_634_JUSTAS]
folding stability dG unfold [1]: 0.934 ± 0.074 kcal/mol | folding stability dG unfold [2]: 1.22 ± 0.028 kcal/mol | folding stability dG unfold [3]: 0.395 ± 0.033 kcal/mol

SAGGSYLVEVVIEYPKQGVKKTVKLFVNNDPKKAEELAEDIIKELGYPDAKIEIKIIPVDPNDPRVLGSAGG [r13_682_JUSTAS]
folding stability dG unfold [1]: 2.25 ± 0.057 kcal/mol | folding stability dG unfold [2]: 2.445 ± 0.022 kcal/mol | folding stability dG unfold [3]: 1.98 ± 0.034 kcal/mol

SAGGTFQVKDPNGKQKPVQLRVRITFEFKGGDKQTFEIEVEGATVDDLREFANSLMNKGFKPVSIEIWSAGG [r13_227_TrROS]
folding stability dG unfold [1]: 1.88 ± 0.048 kcal/mol | folding stability dG unfold [2]: 2.03 ± 0.047 kcal/mol | folding stability dG unfold [3]: 1.595 ± 0.0094 kcal/mol

SAGGTIKITIKAENLTEEEKEELAKKIADELKKKGYKVKKVEVTVEKEKEKTVTITLENGKKIEVKLSAGGS [r8_485_TrROS_Hall]
folding stability dG unfold [1]: 2.31 ± 0.18 kcal/mol | folding stability dG unfold [2]: 2.56 ± 0.038 kcal/mol | folding stability dG unfold [3]: 1.49 ± 0.072 kcal/mol

SAGGTITIELDGVTIEVRVEEKDGTLTLTAKVYNKDTGEVFEIEITITRKEDGSVTITIKITKIEPLPSAGG [r13_1004_TrROS_Hall]
folding stability dG unfold [1]: 3.87 ± 0.53 kcal/mol | folding stability dG unfold [2]: 3.96 ± 0.28 kcal/mol | folding stability dG unfold [3]: 2.44 ± 0.16 kcal/mol

SAGGTIYIWFPMKVDEAVDLAKELAENKDWKIEIYNGGKEHEIELDKIEPVPPENVRVYIEIEPKPDSAGGS [r16_628_TrROS]
folding stability dG unfold [1]: 1.26 ± 0.097 kcal/mol | folding stability dG unfold [2]: 1.64 ± 0.082 kcal/mol | folding stability dG unfold [3]: 0.423 ± 0.041 kcal/mol

SAGGTMKYDVEQKYKYPDPDGNPGGEGKHTQEVEVPPPPVIIIPPNDRELAKELAEKFGIPITPDDIASAGG [r19_315_TrROS]
folding stability dG unfold [1]: 0.609 ± 0.39 kcal/mol | folding stability dG unfold [2]: 0.5 ± 0.25 kcal/mol | folding stability dG unfold [3]: 0.854 ± 0.18 kcal/mol

SAGGTSPVTIPVTFDDLPPDAVDEAKARAEELAEELRAQGHEVLSVTIEIEPGRVTVTLTVTFPGGAPLSAG [r5_515_JUSTAS]
folding stability dG unfold [1]: 1.3 ± 0.12 kcal/mol | folding stability dG unfold [2]: 0.623 ± 0.054 kcal/mol | folding stability dG unfold [3]: 1.93 ± 0.081 kcal/mol

SAGGTTTTLTFETEEEAREFAEELREKHPDVVLEVEIRRETRTVTVPGVGEVREVDRVVVTVTLTPASAGGS [r16_828_JUSTAS]
folding stability dG unfold [1]: 2.89 ± 0.07 kcal/mol | folding stability dG unfold [2]: 3.27 ± 0.064 kcal/mol | folding stability dG unfold [3]: 2.03 ± 0.054 kcal/mol

SAGGVDKGPPDAEVSREVLPRKLPNGKELLEEIRTRVLASGSLLVDRTIRDPNSDKVESEELVDPGASAGGS [r8_129_JUSTAS]
folding stability dG unfold [1]: -0.0613 ± 0.32 kcal/mol | folding stability dG unfold [2]: -0.0363 ± 0.16 kcal/mol | folding stability dG unfold [3]: 0.021 ± 0.31 kcal/mol

SAGGVEREPTEEDLLVATAEFLIEVRDPDSDYPLVEPVPITLPFTSLEDLLEELRRLKAEVEEALASSAGGS [r16_624_TrMRF]
folding stability dG unfold [1]: 1.7 ± 0.14 kcal/mol | folding stability dG unfold [2]: 1.63 ± 0.073 kcal/mol | folding stability dG unfold [3]: 1.88 ± 0.092 kcal/mol

SAGGVKEIEIPNGMRITDVDPPDGYWKIKIENPDNGKEVERPIPPGDKLKIPPNAPVTITEIEPYPPSAGGS [r16_123_TrROS]
folding stability dG unfold [1]: < -1 kcal/mol | folding stability dG unfold [2]: -0.103 ± 0.48 kcal/mol | folding stability dG unfold [3]: -0.613 ± 0.27 kcal/mol

SAGGVNPTDPAQATTTETTPSLVTLPNGEKVLVTTTTTTTPDGSTTTTTTTTNAATGATTSTTTTTASAGGS [r8_252_JUSTAS]
folding stability dG unfold [1]: 2.19 ± 0.14 kcal/mol | folding stability dG unfold [2]: 2.39 ± 0.14 kcal/mol | folding stability dG unfold [3]: 1.97 ± 0.14 kcal/mol

SAGGVREIAKRIANFAREHGYEVEVDEIEPPPNGYVVIDAKIQMRDGGKPVHEFPISIRFPPPPGDPSAGGS [r8_102_TrROS]
folding stability dG unfold [1]: 3.86 ± 0.68 kcal/mol | folding stability dG unfold [2]: 3.51 ± 0.16 kcal/mol | folding stability dG unfold [3]: 3.98 ± 0.43 kcal/mol

SAGGWHTIQINVRRPGKPITPEKIKEALREAYPGYPIEVEDINPEDGRITITVPENAMPRIKEALMKSAGGS [r8_235_TrROS]
folding stability dG unfold [1]: 1.01 ± 0.11 kcal/mol | folding stability dG unfold [2]: 0.896 ± 0.076 kcal/mol | folding stability dG unfold [3]: 1.06 ± 0.041 kcal/mol

SAGGWITVNQIRDLAKELPPGWRIKIKIEYPGKKHEHTIPPGDPITIPPNMPPEDITRIEITEIEPYSAGGS [r16_97_TrROS]
folding stability dG unfold [1]: 0.575 ± 0.11 kcal/mol | folding stability dG unfold [2]: 0.444 ± 0.18 kcal/mol | folding stability dG unfold [3]: 0.476 ± 0.062 kcal/mol

SAGGWMTWEFELEDEDGKDIKIEVEQNPGNPWWRVKIEHKGGKPIPEIPIPADSPDDAIDQARDLLKSAGGS [r16_158_TrROS]
folding stability dG unfold [1]: -0.149 ± 0.33 kcal/mol | folding stability dG unfold [2]: -0.0698 ± 0.49 kcal/mol | folding stability dG unfold [3]: 0.17 ± 0.21 kcal/mol

SAGGWRLRIHIENPGNGRWITHTFPMPPGNIEKIADDMLEMLPGWKITGVEIVYEPGWITITARVKPKSAGG [r13_196_TrROS]
folding stability dG unfold [1]: 2.74 ± 0.064 kcal/mol | folding stability dG unfold [2]: 2.9 ± 0.035 kcal/mol | folding stability dG unfold [3]: 2.252 ± 0.016 kcal/mol

SAGGWWIITIEFPNPEQIKKILEEAGWKVDIERRPNGSVTIFFPPDDVDKIKKAFPGFEINIHPIPPNSAGG [r13_261_TrROS]
folding stability dG unfold [1]: 4.25 ± 0.089 kcal/mol | folding stability dG unfold [2]: 4.45 ± 0.093 kcal/mol | folding stability dG unfold [3]: 3.58 ± 0.11 kcal/mol

SAGGYKYKREKYRDPENGQPRERYKREPPPPPPPSISININAPPEMADKIADILQDLLPNMPVGINGSAGGS [r8_437_TrROS]
folding stability dG unfold [1]: 2.84 ± 0.21 kcal/mol | folding stability dG unfold [2]: 3.04 ± 0.23 kcal/mol | folding stability dG unfold [3]: 2.45 ± 0.088 kcal/mol

SAGGYLVRIEMPNGREHEYPVKDIDDAASRFRDHLGFPPNMKLKVEVYDPKDGEKKERTLTIPMPKPKSAGG [r13_145_TrROS]
folding stability dG unfold [1]: 0.378 ± 0.069 kcal/mol | folding stability dG unfold [2]: 0.504 ± 0.12 kcal/mol | folding stability dG unfold [3]: 0.0313 ± 0.092 kcal/mol

SAGGYVRIRIELQEKRKPPDGKQQQRKKKITITVRLPPNEEMRMPDGKDIDPGKSAEELADYALDNLSAGGS [r16_440_TrROS]
folding stability dG unfold [1]: 1.92 ± 0.15 kcal/mol | folding stability dG unfold [2]: 1.68 ± 0.077 kcal/mol | folding stability dG unfold [3]: 2.16 ± 0.08 kcal/mol

SAGGYYIEFRNPNNGNTVTIPPELIEAIKSGDPDKLKKLPPWFRDALDNIDRVEIQPPPPVPPVPPGKSAGG [r13_233_TrROS]
folding stability dG unfold [1]: 0.887 ± 0.053 kcal/mol | folding stability dG unfold [2]: 0.958 ± 0.041 kcal/mol | folding stability dG unfold [3]: 0.68 ± 0.051 kcal/mol

SAGIEIDIEVDPENGFIKITAKIHNPDGNPVYEMEMWIPVDNGRIYRVDIRINPDNGKIELDIEPFPLNSAG [r5_34_TrROS]
folding stability dG unfold [1]: 3.79 ± 0.26 kcal/mol | folding stability dG unfold [2]: 3.88 ± 0.24 kcal/mol | folding stability dG unfold [3]: 3.48 ± 0.29 kcal/mol

SAGITILFNSAEDAENFAEELAEDYPNMNVTIKIHDPEHGEPVEIPVKIPPPPPKPKRDPDNGNKKYEGSAG [r5_870_TrROS]
folding stability dG unfold [1]: 0.286 ± 0.13 kcal/mol | folding stability dG unfold [2]: 0.506 ± 0.053 kcal/mol | folding stability dG unfold [3]: -0.132 ± 0.043 kcal/mol

SAGITLHPDARIILKNPSTGEKIELRSETIRRLIAEILGTDRPEEITAEQINAFALSLGFEEAEFEEPSAGG [r19_67_TrMRF]
folding stability dG unfold [1]: 3.02 ± 0.045 kcal/mol | folding stability dG unfold [2]: 3.312 ± 0.011 kcal/mol | folding stability dG unfold [3]: 2.29 ± 0.031 kcal/mol

SAGKDEKLVKVIVKFNDKTFEVVVKEEDLKKLVESGILKVVGKIPGKNIVAIKVEVPPPKGDPVGPTPVSAG [r5_868_TrMRF]
folding stability dG unfold [1]: 2.5 ± 0.17 kcal/mol | folding stability dG unfold [2]: 2.82 ± 0.14 kcal/mol | folding stability dG unfold [3]: 2.08 ± 0.24 kcal/mol

SAGKELVLRVRLYRPVPLEEPRVEEREVVVPRKEDEPIEKVVEELLEPDWVLEVEVFDEGKLIERYYTHSAG [r5_278_TrMRF]
folding stability dG unfold [1]: 1.11 ± 0.2 kcal/mol | folding stability dG unfold [2]: 1.36 ± 0.22 kcal/mol | folding stability dG unfold [3]: 0.721 ± 0.075 kcal/mol

SAGKIEITVKPDGTVIIKVTVEVDGKKLELTIEVPPEMTIEEIIEKLKELAEELGVEKVEVEIVPLPPSAGG [r19_31_TrROS_Hall]
folding stability dG unfold [1]: > 6 kcal/mol | folding stability dG unfold [2]: 2.9 ± 0.45 kcal/mol | folding stability dG unfold [3]: 3.9 ± 0.85 kcal/mol

SAGKIEVKKNYVVIEIKVEGKELKLVIKVKTKEEQEKALELVKKLEEELKKEGLEVEVKVEVFKEGEEVSAG [r5_823_TrROS_Hall]
folding stability dG unfold [1]: 2.8 ± 0.23 kcal/mol | folding stability dG unfold [2]: 3 ± 0.16 kcal/mol | folding stability dG unfold [3]: 2.2 ± 0.15 kcal/mol

SAGKIKIEKENGEVKIEIEVPEEEIEKLKKLLEELKKKGFEVEKVEVKVEKKEDGTVKVTIKVKIKPKPSAG [r5_739_TrROS_Hall]
folding stability dG unfold [1]: 2.99 ± 0.51 kcal/mol | folding stability dG unfold [2]: 3.42 ± 0.41 kcal/mol | folding stability dG unfold [3]: 1.91 ± 0.13 kcal/mol
